Measurements as given in IntAct's records for PubMed 38123684.

B1: cAMP-regulated phosphoprotein 19 (Homo sapiens), P56211 (parent)
chain: MSAEVPEAASAEEQKEMEDKVTSPEKAEEAKLKARYPHLGQKPGGSDFLRKRLQKGQKYFDSGDYNMAKAKMKNKQLPTAAPDKTEVTGDHIPTPQDLPQRKPSLVASKLAG
partner: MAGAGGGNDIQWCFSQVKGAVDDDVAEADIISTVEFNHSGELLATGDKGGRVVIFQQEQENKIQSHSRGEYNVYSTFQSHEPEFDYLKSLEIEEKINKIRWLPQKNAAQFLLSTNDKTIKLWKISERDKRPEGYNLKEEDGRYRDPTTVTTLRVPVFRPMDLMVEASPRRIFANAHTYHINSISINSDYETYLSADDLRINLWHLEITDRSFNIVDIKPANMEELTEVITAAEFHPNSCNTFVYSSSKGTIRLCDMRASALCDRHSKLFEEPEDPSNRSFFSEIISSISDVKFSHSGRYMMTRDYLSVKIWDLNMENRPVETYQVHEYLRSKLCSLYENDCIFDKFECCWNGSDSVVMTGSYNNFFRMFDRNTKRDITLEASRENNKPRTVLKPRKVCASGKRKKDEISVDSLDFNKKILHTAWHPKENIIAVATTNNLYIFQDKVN

Variants of: B1
Conditions: with 2aba_human PPP2R2A

effect of a mutation on the interaction | Variant
with no effect | MSAEVPEAASAEEQKEMEDKVTSPEKAEEAKLKARYPHLGQKPGGSDFLRKRLQKGQKYFDEGDYNMAKAKMKNKQLPTAAPDKTEVTGDHIPTPQDLPQRKPSLVASKLAG [S62E]
